A word on the Kd: it is a measure of binding affinity in units of concentration.

B1: fibrinogen (complex)
chain 1: ADSGEGDFLAEGGGVRGPRVVERHQSACKDSDWPFCSDEDWNYKCPSGCRMKGLIDEVNQDFTNRINKLKNSLFEYQKNNKDSHSLTTNIMEILRGDFSSANNRDNTYNRVSEDLRSRIEVLKRKVIEKVQHIQLLQKNVRAQLVDMKRLEVDIDIKIRSCRGSCSRALAREVDLKDYEDQQKQLEQVIAKDLLPSRDRQHLPLIKMKPVPDLVPGNFKSQLQKVPPEWKALTDMPQMRMELERPGGNEITRGGSTSYGTGSETESPRNPSSAGSWNSGSSGPGSTGNRNPGSSGTGGTATWKPGSSGPGSTGSWNSGSSGTGSTGNQNPGSPRPGSTGTWNPGSSERGSAGHWTSESSVSGSTGQWHSESGSFRPDSPGSGNARPNNPDWGTFEEVSGNVSPGTRREYHTEKLVTSKGDKELRTGKEKVTSGSTTTTRRSCSKTVTKTVIGPDGHKEVTKEVVTSEDGSDCPEAMDLGTLSGIGTLDGFRHRHPDEAAFFDTASTGKTFPGFFSPMLGEFVSETESRGSESGIFTNTKESSSHHPGIAEFPSRGKSSSYSKQFTSSTSYNRGDSTFESKSYKMADEAGSEADHEGTHSTKRGHAKSRPV
chain 2: QGVNDNEEGFFSARGHRPLDKKREEAPSLRPAPPPISGGGYRARPAKAAATQKKVERKAPDAGGCLHADPDLGVLCPTGCQLQEALLQQERPIRNSVDELNNNVEAVSQTSSSSFQYMYLLKDLWQKRQKQVKDNENVVNEYSSELEKHQLYIDETVNSNIPTNLRVLRSILENLRSKIQKLESDVSAQMEYCRTPCTVSCNIPVVSGKECEEIIRKGGETSEMYLIQPDSSVKPYRVYCDMNTENGGWTVIQNRQDGSVDFGRKWDPYKQGFGNVATNTDGKNYCGLPGEYWLGNDKISQLTRMGPTELLIEMEDWKGDKVKAHYGGFTVQNEANKYQISVNKYRGTAGNALMDGASQLMGENRTMTIHNGMFFSTYDRDNDGWLTSDPRKQCSKEDGGGWWYNRCHAANPNGRYYWGGQYTWDMAKHGTDDGVVWMNWKGSWYSMRKMSMKIRPFFPQQ
chain 3: YVATRDNCCILDERFGSYCPTTCGIADFLSTYQTKVDKDLQSLEDILHQVENKTSEVKQLIKAIQLTYNPDESSKPNMIDAATLKSRKMLEEIMKYEASILTHDSSIRYLQEIYNSNNQKIVNLKEKVAQLEAQCQEPCKDTVQIHDITGKDCQDIANKGAKQSGLYFIKPLKANQQFLVYCEIDGSGNGWTVFQKRLDGSVDFKKNWIQYKEGFGHLSPTGTTEFWLGNEKIHLISTQSAIPYALRVELEDWNGRTSTADYAMFKVGPEADKYRLTYAYFAGGDAGDAFDGFDFGDDPSDKFFTSHNGMQFSTWDNDNDKFEGNCAEQDGSGWWMNKCHAGHLNGVYYQGGTYSKASTPNGYDNGIIWATWKTRWYSMKKTTMKIIPFNRLTIGEGQQHHLGGAKQAGDV
modifications: plasma fibrinogen (AαBβγ)2, disulfide-linked and glycosylated, fibrinopeptides retained; the main circulating forms are assumed (Aα 610 residues, γA 411 residues). The γA chain is taken from PDB …

Common to all, as to assay: SPR; Biacore T100, CM5 chip, Fn and Fg amine-coupled; His-polypeptides as analytes at 0.5, 1.0, 1.5, 2.0 and 2.5 μM in PBS, 30 μl/min, single cycle kinetics; steady state affinity constants
Holding throughout (details): both partners purified
In general terms: Surface plasmon resonance follows binding to a sensor surface in real time, without labels.

In one test the target is His-ΔCoa (S. aureus subsp. aureus NCTC 8325-4, UniProt Q2G1D3 1-636).
For a further test, the target named is T1, His-ΔEbh (S. aureus subsp. aureus NCTC 8325-4, UniProt Q2FYJ6 40-9535).
T1 construct: the Ebh gene fragment of library clone ΔEbh (as the staphylococcal part of m3), recloned by PCR into pQE30; also called ΔEbh purified 6xHis polypeptide; source: E. coli cytoplasm (pQE30), purified under native conditions (QIAexpress System), dialysed against PBS; not shown: His6, N-terminal, kept

A further test concerns the target human plasma fibronectin (human).
The target of the test “fibrinogen” is B1.

Sequence of human plasma fibronectin (human) (P02751 other isoform, or with tags, fused parts or gaps, chain 1 of 2): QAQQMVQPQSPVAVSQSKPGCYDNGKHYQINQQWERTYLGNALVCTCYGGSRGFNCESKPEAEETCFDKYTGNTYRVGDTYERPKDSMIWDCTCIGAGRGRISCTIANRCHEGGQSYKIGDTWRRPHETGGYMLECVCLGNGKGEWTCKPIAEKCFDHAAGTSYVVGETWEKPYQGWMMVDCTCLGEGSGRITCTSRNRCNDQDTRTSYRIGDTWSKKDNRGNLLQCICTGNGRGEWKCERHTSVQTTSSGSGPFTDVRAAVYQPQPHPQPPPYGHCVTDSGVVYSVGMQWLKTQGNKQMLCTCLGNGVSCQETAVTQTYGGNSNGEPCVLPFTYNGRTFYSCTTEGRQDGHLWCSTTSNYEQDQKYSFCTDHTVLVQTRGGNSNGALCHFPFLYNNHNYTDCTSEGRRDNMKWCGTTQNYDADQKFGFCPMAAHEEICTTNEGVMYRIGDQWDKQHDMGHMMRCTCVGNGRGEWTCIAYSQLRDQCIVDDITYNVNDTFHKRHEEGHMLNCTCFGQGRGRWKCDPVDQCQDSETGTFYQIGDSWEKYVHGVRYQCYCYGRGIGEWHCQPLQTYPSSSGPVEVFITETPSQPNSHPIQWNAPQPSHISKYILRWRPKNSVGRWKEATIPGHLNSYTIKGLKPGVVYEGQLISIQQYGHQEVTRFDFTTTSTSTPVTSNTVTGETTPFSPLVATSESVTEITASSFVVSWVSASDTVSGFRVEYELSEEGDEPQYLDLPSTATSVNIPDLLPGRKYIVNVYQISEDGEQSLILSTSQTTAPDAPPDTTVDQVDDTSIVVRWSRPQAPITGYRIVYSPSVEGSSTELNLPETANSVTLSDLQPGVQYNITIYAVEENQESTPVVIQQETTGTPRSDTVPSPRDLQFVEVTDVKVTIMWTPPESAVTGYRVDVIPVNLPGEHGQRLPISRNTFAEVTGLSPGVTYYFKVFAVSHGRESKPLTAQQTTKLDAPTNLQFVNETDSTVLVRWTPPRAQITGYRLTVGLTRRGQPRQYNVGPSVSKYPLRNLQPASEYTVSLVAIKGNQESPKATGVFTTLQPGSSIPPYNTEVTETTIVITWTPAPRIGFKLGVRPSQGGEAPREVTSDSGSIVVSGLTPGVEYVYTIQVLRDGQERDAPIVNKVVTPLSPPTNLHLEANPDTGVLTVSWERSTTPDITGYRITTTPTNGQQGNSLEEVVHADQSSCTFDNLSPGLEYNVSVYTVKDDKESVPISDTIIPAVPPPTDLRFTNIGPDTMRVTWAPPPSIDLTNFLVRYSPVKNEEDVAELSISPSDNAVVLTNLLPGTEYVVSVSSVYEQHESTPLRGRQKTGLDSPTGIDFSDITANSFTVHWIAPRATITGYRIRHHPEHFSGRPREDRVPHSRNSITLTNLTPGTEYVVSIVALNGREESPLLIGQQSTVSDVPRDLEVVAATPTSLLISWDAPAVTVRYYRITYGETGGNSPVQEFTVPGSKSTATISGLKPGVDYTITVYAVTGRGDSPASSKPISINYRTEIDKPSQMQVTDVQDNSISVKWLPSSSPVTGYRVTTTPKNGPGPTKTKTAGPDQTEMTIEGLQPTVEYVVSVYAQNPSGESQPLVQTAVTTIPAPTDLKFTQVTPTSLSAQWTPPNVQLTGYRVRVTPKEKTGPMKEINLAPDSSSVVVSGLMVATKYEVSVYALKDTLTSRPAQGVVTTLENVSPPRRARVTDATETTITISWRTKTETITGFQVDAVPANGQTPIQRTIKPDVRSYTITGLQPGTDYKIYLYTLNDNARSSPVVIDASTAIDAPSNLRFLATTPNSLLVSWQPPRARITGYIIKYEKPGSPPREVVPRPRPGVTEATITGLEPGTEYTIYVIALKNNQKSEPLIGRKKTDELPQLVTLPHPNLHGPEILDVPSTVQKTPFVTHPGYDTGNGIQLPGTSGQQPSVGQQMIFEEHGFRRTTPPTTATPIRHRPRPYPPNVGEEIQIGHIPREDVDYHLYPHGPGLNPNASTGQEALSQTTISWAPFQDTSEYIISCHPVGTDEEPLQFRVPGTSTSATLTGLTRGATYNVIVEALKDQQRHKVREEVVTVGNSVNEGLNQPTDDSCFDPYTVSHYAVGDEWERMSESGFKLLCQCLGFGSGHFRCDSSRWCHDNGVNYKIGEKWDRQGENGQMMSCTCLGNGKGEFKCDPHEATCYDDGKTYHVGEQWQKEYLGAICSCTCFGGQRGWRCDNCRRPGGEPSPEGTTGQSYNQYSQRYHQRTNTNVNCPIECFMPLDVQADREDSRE
Sequence of human plasma fibronectin (human) (P02751 other isoform, or with tags, fused parts or gaps, chain 2 of 2): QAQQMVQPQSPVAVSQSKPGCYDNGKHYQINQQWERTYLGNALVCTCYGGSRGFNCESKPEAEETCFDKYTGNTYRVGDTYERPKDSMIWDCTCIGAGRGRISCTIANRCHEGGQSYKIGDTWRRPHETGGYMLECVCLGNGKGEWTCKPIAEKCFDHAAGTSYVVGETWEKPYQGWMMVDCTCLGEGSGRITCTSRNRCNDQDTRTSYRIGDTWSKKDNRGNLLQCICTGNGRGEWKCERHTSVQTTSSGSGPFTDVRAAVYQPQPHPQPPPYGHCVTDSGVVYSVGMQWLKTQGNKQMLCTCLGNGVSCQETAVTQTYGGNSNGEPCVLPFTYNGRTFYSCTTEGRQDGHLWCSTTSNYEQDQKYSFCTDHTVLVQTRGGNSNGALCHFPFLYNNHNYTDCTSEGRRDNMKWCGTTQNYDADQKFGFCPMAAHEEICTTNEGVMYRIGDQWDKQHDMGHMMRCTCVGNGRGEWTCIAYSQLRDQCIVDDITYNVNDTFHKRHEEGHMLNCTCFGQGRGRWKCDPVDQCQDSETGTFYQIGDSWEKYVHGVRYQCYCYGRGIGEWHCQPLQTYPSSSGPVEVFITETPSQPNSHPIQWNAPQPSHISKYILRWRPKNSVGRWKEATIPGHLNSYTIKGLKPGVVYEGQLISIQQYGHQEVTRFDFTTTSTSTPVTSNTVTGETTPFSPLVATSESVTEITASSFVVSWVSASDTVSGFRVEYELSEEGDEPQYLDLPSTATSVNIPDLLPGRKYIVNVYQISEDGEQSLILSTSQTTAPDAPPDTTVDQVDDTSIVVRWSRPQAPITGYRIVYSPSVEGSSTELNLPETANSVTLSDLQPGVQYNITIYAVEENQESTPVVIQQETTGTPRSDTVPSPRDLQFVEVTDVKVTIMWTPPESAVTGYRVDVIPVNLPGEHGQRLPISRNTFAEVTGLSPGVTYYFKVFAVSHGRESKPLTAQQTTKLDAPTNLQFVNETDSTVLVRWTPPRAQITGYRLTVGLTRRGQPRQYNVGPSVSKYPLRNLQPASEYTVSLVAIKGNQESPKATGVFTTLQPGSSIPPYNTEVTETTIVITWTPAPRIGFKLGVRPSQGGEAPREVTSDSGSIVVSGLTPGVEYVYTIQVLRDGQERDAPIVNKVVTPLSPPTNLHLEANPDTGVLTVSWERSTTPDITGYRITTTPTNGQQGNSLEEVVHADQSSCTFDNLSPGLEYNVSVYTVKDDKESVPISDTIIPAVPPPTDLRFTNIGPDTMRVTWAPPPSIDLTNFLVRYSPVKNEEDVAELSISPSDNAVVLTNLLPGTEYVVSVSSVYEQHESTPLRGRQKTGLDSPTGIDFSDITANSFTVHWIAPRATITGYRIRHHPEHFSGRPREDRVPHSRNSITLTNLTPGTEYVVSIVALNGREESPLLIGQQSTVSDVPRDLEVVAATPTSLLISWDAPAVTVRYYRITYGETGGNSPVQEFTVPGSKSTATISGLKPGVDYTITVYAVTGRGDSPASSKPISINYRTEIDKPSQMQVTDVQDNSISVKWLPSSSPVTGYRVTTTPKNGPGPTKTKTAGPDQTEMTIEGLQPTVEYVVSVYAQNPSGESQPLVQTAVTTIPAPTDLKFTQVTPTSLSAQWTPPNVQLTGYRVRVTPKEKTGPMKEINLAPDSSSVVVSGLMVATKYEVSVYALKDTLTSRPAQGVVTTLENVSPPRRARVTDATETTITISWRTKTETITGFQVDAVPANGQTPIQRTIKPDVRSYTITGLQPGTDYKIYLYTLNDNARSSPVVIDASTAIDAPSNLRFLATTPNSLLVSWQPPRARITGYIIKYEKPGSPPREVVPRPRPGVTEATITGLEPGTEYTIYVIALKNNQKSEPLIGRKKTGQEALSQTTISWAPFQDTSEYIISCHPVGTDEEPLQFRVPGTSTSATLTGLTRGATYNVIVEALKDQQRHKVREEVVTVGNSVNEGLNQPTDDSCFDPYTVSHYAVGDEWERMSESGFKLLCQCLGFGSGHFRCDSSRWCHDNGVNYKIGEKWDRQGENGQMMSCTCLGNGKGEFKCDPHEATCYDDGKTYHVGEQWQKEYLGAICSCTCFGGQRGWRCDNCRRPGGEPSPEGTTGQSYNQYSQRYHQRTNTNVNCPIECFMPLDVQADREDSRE

Take B1: the results for the Kd in the test with His-ΔCoa and in the test with His-ΔEbh were 0.18 µM and 1.25 µM, respectively.

B2: His-ΔPurK (domain or fragment)
chain: MNFNKLKFGATIGIIGGGQLGKMMAQSAQKMGYKVVVLDPSEDCPCRYVAHEFIQAKYDDEKALNQLGQKCDVITYEFENISAQQLKLLCEKYNIPQGYQAIQLLQDRLTEKETLKSAGTKVVPFISVKESTDIDKAIETLGYPFIVKTRFGGYDGKGQVLINNEKDLQEGFKLIETSECVAEKYLNIKKEVSLTVTRGNNNQITFFPLQENEHRNQILFKTIVPARIDKTAEAKEQVNKIIQSIHFIGTFTVEFFIDSNNQLYVNEIAPRPHNSGHYSIEACDYSQFDTHILAVTGQSLPNSIELLKPAVMMNLLGKDLDLLENEFNEHPEWHLHIYGKSERKDSRKMGHMTVLTNDVNQTEQDMYAKFEGSN
notes: the PurK gene fragment of library clone ΔPurK (as the staphylococcal part of m5), recloned by PCR into pQE30; also called ΔPurK purified 6xHis polypeptide; source: E. coli cytoplasm (pQE30), purified under native conditions (QIAexpress System), dialysed against PBS; not shown: His6, N-terminal, kept
B2: the values for the Kd in the test with human plasma fibronectin and with fibrinogen were 0.443 µM and 5.39 µM, respectively.

B3: His-ΔUsp (domain or fragment)
chain: MITYKNILIAVDGSHEAEWAFNRAVGVAKRNDAKLTIVNVIDSRTYSSYEVYDAQFTEKSKHFAEELLNGYKEVATNAGVKDVETRLEFGSPKSIIPKKLAHEINADLIMSGTSGLNAVERFIVGSVSESIVRHAPCDVLVVRTEELPADFQPQVATTQLREKYQN
notes: the Usp-like gene fragment of library clone ΔUsp (as the staphylococcal part of m7), recloned by PCR into pQE30; also called ΔUsp purified 6xHis polypeptide; source: E. coli cytoplasm (pQE30), purified under native conditions (QIAexpress System), dialysed against PBS; not shown: His6, N-terminal, kept
For B3, the dissociation constant (Kd) with fibrinogen was found to be 6.45 µM.

B4: His-ΔFnBPA (domain or fragment)
chain: ASEQKTTTVEENGNSATDNKTSETQTTATNVNHIEETQSYNATVTEQPSNATQVTTEEAPKAVQAPQTAQPANIETVKEEVVKEEAKPQVKETTQSQDNSGDQRQVDLTPKKATQNQVAETQVEVAQPRTASESKPRVTRSADVAEAKEASNAKVETGTDVTSKVTVEIGSIEGHNNTNKVEPHAGQRAVLKYKLKFENGLHQGDYFDFTLSNNVNTHGVSTARKVPEIKNGSVVMATGEVLEGGKIRYTFTNDIEDKVDVTAELEINLFIDPKTVQTNGNQTITSTLNEEQTSKELDVKYKDGIGNYYANLNGSIETFNKANNRFSHVAFIKPNNGKTTSVTVTGTLMKGSNQNGNQPKVRIFEYLGNNEDIAKSVYANTTDTSKFKEVTSNMSGNLNLQNNGSYSLNIENLDKTYVVHYDGEYLNGTDEVDFRTQMVGHPEQLYKYYYDRGYTLTWDNGLVLYSNKANGNEKNGPIIQNNKFEYKEDTIKETLTGQYDKNLVTTVEEEYDSSTLDIDYHTAIDGGGGYVDGYIETIEETDSSAIDIDYHTAVDSEAGHVGGYTESSEESNPIDFEESTHENSKHHADVVEYEEDTNPGGGQVTTESNLVEFDEESTKGIVTGAVSDHTTVEDTKEYTTESNLIELVDELPEEHGQAQGPVEEITKNNHHISHSGLGTENGHGNYDVIEEIEENSHVDIKSELGYEGGQNSGNQSFEEDTEEDKPKYEQGGNIVDIDFDSVPQIHGQNKGNQSFEEDTEKDKPKYEHGGNIIDIDFDSVPHIHGFNKHTEIIEEDTNKDKPSYQFGGHNSVDFEEDTLPKVSGQNEGQQTIEEDTTPPIVPPTPPTPEVPSEPETPTPPTPEVPSEPETPTPPTPEVPSEPETPTPPTPEVPAEPGKPVPPAKEEPKKPSKPVEQGKVVTPVIEINEKVKAVAPTKKPQSKKSELPET
notes: the FnBPA gene fragment of library clone ΔFnBPA (as the staphylococcal part of m2); also called ΔFnBPA purified 6xHis polypeptide; source: E. coli cytoplasm (pQE30), purified under native conditions (QIAexpress System), dialysed against PBS; not shown: His6, N-terminal, kept
In the case of B4, the Kd with human plasma fibronectin was determined as 5.24 µM.

For the origin of these results see article PMC3127751, “Adhesive polypeptides of Staphylococcus aureus identified using a novel secretion library technique in Escherichia coli” (BMC Microbiology, 2011).
